Data: US20230065493A1

What follows are substances tested against CPTL derived from para rubber tree (Hevea brasiliensis) (Hevea brasiliensis).
“cis-prenyltransferase (CPT) 7 derived from para rubber tree (Hevea brasiliensis) (enzyme)” was tested, and the Radioactivity (isoprene polymerization activity, 14C-IPP incorporation, proteoliposome) was 5040 dpm.
“CPT1 derived from para rubber tree (Hevea brasiliensis) (enzyme)” was tested, and the Radioactivity (isoprene polymerization activity, 14C-IPP incorporation, proteoliposome) was 290 dpm.
Substance “cis-prenyltransferase (CPT) 6 derived from para rubber tree (Hevea brasiliensis) (enzyme)” has a Radioactivity (isoprene polymerization activity, 14C-IPP incorporation, proteoliposome) of 7660 dpm.
